These results are taken from FireProtDB (doi:10.1002/pro.5560040510).

The conditions of the data set: Bos taurus, glycine 40 mM, reversible: no, whole UniProt chain shown; for Tm / unfolding enthalpy (van 't Hoff): Thermal, Absorbance.

The term Tm denotes the temperature at the midpoint of the melting transition.

B1: Adrenodoxin, mitochondrial wild type, P00257 (protein)
chain: MAARLLRVASAALGDTAGRWRLLARPRAGAGGLRGSRGPGLGGGAVATRTLSVSGRAQSSSEDKITVHFINRDGETLTTKGKIGDSLLDVVVQNNLDIDGFGACEGTLACSTCHLIFEQHIFEKLEAITDEENDMLDLAYGLTDRSRLGCQICLTKAMDNMTVRVPDAVSDARESIDMGMNSSKIE
With B1, the Tm is 47.5 °C (pH 6.5); 53.7 °C (pH 7.4); 53.5 °C (pH 8.5); 54 °C (pH 9.5); 53.2 °C (pH 10.5). The “unfolding enthalpy (van 't Hoff)” value is, setting by setting: (pH 6.5) 90 kcal/mol; (pH 7.4) 91.6 kcal/mol; (pH 8.5) 82 kcal/mol; (pH 9.5) 79.2 kcal/mol; (pH 10.5) 64.6 kcal/mol. Also, the unfolding free energy (pH 8.5, 25 °C, Urea, DSC) was 5.02 kcal/mol.
